Source: US10047131B2, “Peptides and combination of peptides for use in immunotherapy against ovarian cancer and other cancers” (immatics biotechnologies GmbH, priority 2015, dated 2018)

Biological target: HLA-A*02:01 (Homo sapiens, UniProt P04439, D140Y/D185E/D98H/E176V/E277Q/G131W/G231S/I119V/I121R/I166T/I218V/L300P/L318F/N151K/N90K/P208A/P217A/Q86G/Q94H/R138H/R169H/T345S)
Assay: MHC binding assay (UV-ligand exchange, ELISA of exchange yield)
Settings: binding to HLA-A*02:01, UV-ligand exchange
Source text: Candidate peptides for T cell based therapies according to the present invention were further tested for their MHC binding capacity (affinity). The individual peptide-MHC complexes were produced by UV-ligand exchange, where a UV-sensitive peptide is cleaved upon UV-irradiation, and exchanged with the peptide of interest as analyzed. Only peptide candidates that can effectively bind and stabilize the peptide-receptive MHC molecules prevent dissociation of the MHC complexes. To determine the yield of the exchange reaction, an ELISA was performed based on the detection of the light chain (p2m) of stabilized MHC complexes. The assay was performed as generally described in Rodenko et al. (Rodenko et al., 2006).
96 well MAXISorp plates (NUNC) were coated over night with 2 μg/ml streptavidin in PBS at room temperature, washed 4× and blocked for 1 h at 37° C. in 2% BSA containing blocking buffer. […] Peptide-MHC monomers of the UV-exchange reaction were diluted 100 fold in blocking buffer. Samples were incubated for 1h at 37° C., washed four times, incubated with 2 μg/ml HRP conjugated anti-β2m for 1h at 37° C., washed again and detected with TMB solution that is stopped with […]. Absorption was measured at 450 nm. Candidate peptides that show a high exchange yield (preferably higher than 50%, most preferred higher than 75%) are generally preferred for a generation and production of antibodies or fragments thereof, and/or T cell receptors or fragments thereof, as they show sufficient avidity to the MHC molecules and prevent dissociation of the MHC complexes.

Substance | Peptide exchange (MHC class I binding score, peptide exchange yield)
131 (FVPPVTVFPSL; listed as Homo sapiens) [compound 131] | “++” (≥20% = ++)
132 (LLVEQPPLAGV; listed as Homo sapiens) [compound 132] | “+++” (≥50 = +++)
133 (KVLSNIHTV; listed as Homo sapiens) [compound 133] | “++” (≥20% = ++)
134 (YLQELIFSV; listed as Homo sapiens) [compound 134] | “+++” (≥50 = +++)
135 (ALSEVDFQL; listed as Homo sapiens) [compound 135] | “+++” (≥50 = +++)
136 (YLADPSNLFVV; listed as Homo sapiens) [compound 136] | “+++” (≥50 = +++)
137 (TLVLTLPTV; listed as Homo sapiens) [compound 137] | “++++” (≥75% = ++++)
138 (YQYPRAILSV; listed as Homo sapiens) [compound 138] | “+++” (≥50 = +++)
139 (SVMEVNSGIYRV; listed as Homo sapiens) [compound 139] | “+++” (≥50 = +++)
140 (YMDAPKAAL; listed as Homo sapiens) [compound 140] | “++” (≥20% = ++)
141 (YLDFSNNRL; listed as Homo sapiens) [compound 141] | “++” (≥20% = ++)
142 (FLFATPVFI; listed as Homo sapiens) [compound 142] | “+++” (≥50 = +++)
143 (LLLDITPEI; listed as Homo sapiens) [compound 143] | “++++” (≥75% = ++++)
144 (YIMEPSIFNTL; listed as Homo sapiens) [compound 144] | “+++” (≥50 = +++)

Now from value to substance:

Peptide exchange (MHC class I binding score, peptide exchange yield) | Substance
“++” (≥20% = ++) | 145 (FLATSGTLAGI; listed as Homo sapiens) [compound 145]
“++” (≥20% = ++) | 146 (SLATAGDGLIEL; listed as Homo sapiens) [compound 146]
“+++” (≥50 = +++) | 147 (SLLEAVSFL; listed as Homo sapiens) [compound 147]
“++” (≥20% = ++) | 148 (ALNPEIVSV; listed as Homo sapiens) [compound 148]
“+++” (≥50 = +++) | 149 (NLLELFVQL; listed as Homo sapiens) [compound 149]
“+++” (≥50 = +++) | 150 (RLWEEGEELEL; listed as Homo sapiens) [compound 150]
“+++” (≥50 = +++) | 151 (KILQQLVTL; listed as Homo sapiens) [compound 151]
“+++” (≥50 = +++) | 152 (ILFEDIFDV; listed as Homo sapiens) [compound 152]
“+” (≥10% = +) | 153 (FLIANVLYL; listed as Homo sapiens) [compound 153]
“++” (≥20% = ++) | 154 (ALDDGTPAL; listed as Homo sapiens) [compound 154]
“+++” (≥50 = +++) | 155 (RVANLHFPSV; listed as Homo sapiens) [compound 155]
“++” (≥20% = ++) | 157 (SLNDEVPEV; listed as Homo sapiens) [compound 157]
“+++” (≥50 = +++) | 158 (KLFDVDEDGYI; listed as Homo sapiens) [compound 158]
“++++” (≥75% = ++++) | 159 (GLVGNPLPSV; listed as Homo sapiens) [compound 159]
